This is an account of results in PMC2700083, “A covalent peptide inhibitor of RGS4 identified in a focused one-bead, one compound library screen” (BMC Pharmacology, 2009).

Type in all cases: binding
Assay [1] deals with T1, RGS4 C95A (Rattus norvegicus, UniProt P49799, C95A).
T1 construct: made in house
T1 sequence (P49799 52-205 C95A limits assumed): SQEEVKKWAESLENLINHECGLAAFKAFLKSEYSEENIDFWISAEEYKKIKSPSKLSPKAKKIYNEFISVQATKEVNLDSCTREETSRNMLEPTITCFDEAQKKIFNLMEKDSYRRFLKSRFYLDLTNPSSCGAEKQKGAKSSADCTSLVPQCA
In words: FCPIA, RGS4 cysteine mutant C95A. To be noted: read-out: Gαo affinity. The procedure:
(§1) Figure 5 Dose curves of 5nd on various RGS4 cysteine mutants. Various concentrations of 5nd were tested for disruption of the RGS4-Gαo interaction for C95A (5 nM), or […], C71A (5nM) or C148A (5nM) (B), A95C in the -7C (5nM), or A132C in the -7C (5nM) (C), A71C in the -7C (5nM), or A148C in the -7C (5nM) (D) or the mutant with no cysteines in the domain (20 nM) or the C-terminus (20 nM) (E) in the FCPIA (mean ± S.E.M., n ≥ 3).
(§2) Proteins were expressed, purified and labeled as described previously. The mutagenesis was done using the "QuickChange Multi Site-Directed Mutagenesis Kit" from Stratagene according to the manufacturer's protocol. The construct of RGS4 used in these studies is a maltose binding protein (MBP-) fusion protein of the RGS4 sequence from which the amphipathic N-terminal helix has been removed (i.e. MBP-RGS4Δ51N). For simplicity in the text, this will be referred to as RGS4. All other RGS proteins were human sequences and were used as Mpb fusions: RGS7 RGS domain (aa: 305–453), RGS8 full length, RGS16 full length, and RGS19ΔC11 (amino acids 1–209). To cleave RGS4Δ51N from the MBP-His6 construct for MS analysis, MBP-His6-RGS4Δ51N was treated with 15% MBP-His6-TEV protease S219V [11] for 22 hours at 4°C and purified over a Ni-NTA column.
(§3) FCPIA was performed as previously published.

The target in assay [2] is T2, RGS4 C148A (Rattus norvegicus, UniProt P49799, C148A).
T2 construct: made in house
The experiment in a line: FCPIA, RGS4 cysteine mutant C148A. To be noted: read-out: Gαo affinity. The procedure: as §1, §2, §3

Assay [3] concerns the target T3, RGS4 C71A (Rattus norvegicus, UniProt P49799, C71A).
T3 construct: made in house
T3 sequence (P49799 52-205 C71A limits assumed): T1 sequence (P49799 52-205 C95A limits assumed) with C20A, A44C
The experiment in a line: FCPIA, RGS4 cysteine mutant C71A. Particulars: read-out: Gαo affinity. The procedure: as §1, §2, §3

In assay [4] the target is T4, RGS4 C132A (Rattus norvegicus, UniProt P49799, C132A).
T4 construct: made in house
T4 sequence (P49799 52-205 C132A limits assumed): T1 sequence (P49799 52-205 C95A limits assumed) with A44C, C81A
In words: FCPIA, RGS4 cysteine mutant C132A. Particulars: read-out: Gαo affinity. On the procedure:
as §1, §2, §3

Assay [5] addresses T5, RGS4 -7C (Rattus norvegicus, UniProt P49799, C132A/C148A/C183A/C197A/C204A/C71A/C95A).
T5 construct: made in house
The experiment in a line: FCPIA, RGS4 -7C mutant (all 7 cysteines removed). To be noted: read-out: Gαo affinity. The procedure:
(§4) Since 5nd forms an irreversible, DTT-sensitive bond with RGS, it was suspected that it binds covalently to a cysteine in the protein through a disulfide bridge. Indeed, removal of all 7 cysteines (termed the -7C mutant) from RGS4 greatly diminished 5nd activity (logIC50 of -3.24 ± 0.14 for -7C vs. -4.36 ± 0.02 for wild type) (Figure 5, Table 2).
as §1
(§5) Proteins were expressed, purified and labeled as described previously. The mutagenesis was done using the "QuickChange Multi Site-Directed Mutagenesis Kit" from Stratagene according to the manufacturer's protocol. The construct of RGS4 used in these studies is a maltose binding protein (MBP-) fusion protein of the RGS4 sequence from which the amphipathic N-terminal helix has been removed (i.e. MBP-RGS4Δ51N). For simplicity in the text, this will be referred to as RGS4. […]

Assay [6] concerns the target T6, RGS4 A95C, -7C (Rattus norvegicus, UniProt P49799, C132A/C148A/C183A/C197A/C204A/C71A).
T6 construct: made in house
In words: FCPIA, RGS4 A95C in the -7C. Particulars: read-out: Gαo affinity. The procedure: as §1
(§6) The previous experiments tested which cysteines are necessary for inhibition by 5nd. In an alternative approach, we added cysteines back to the -7C mutant to determine which might be sufficient for 5nd activity. […] Furthermore, Cys132 is involved in the actions but this is clearly not sufficient to explain them. Thus it is concluded that 5nd is at least partially non-selective in its cysteine modification.
as §5

For assay [7], the target named is T7, RGS4 A148C, -7C (Rattus norvegicus, UniProt P49799, C132A/C183A/C197A/C204A/C71A/C95A).
T7 construct: made in house
T7 sequence (P49799 52-205 C71A/C95A/C132A/C183A/C197A/C204A): T1 sequence (P49799 52-205 C95A limits assumed) with C20A, C81A, C132A, C146A, C153A
In words: FCPIA, RGS4 A148C in the -7C. Particulars: read-out: Gαo affinity. On the procedure: as §1, §6, §5

Assay [8] concerns the target T8, RGS4 A71C, -7C (Rattus norvegicus, UniProt P49799, C132A/C148A/C183A/C197A/C204A/C95A).
T8 construct: made in house
In words: FCPIA, RGS4 A71C in the -7C. Particulars: read-out: Gαo affinity. The procedure:
as §1, §6, §5

Assay [9] has as its target T9, RGS4 A132C, -7C (Rattus norvegicus, UniProt P49799, C148A/C183A/C197A/C204A/C71A/C95A).
T9 construct: made in house
In words: FCPIA, RGS4 A132C in the -7C. To be noted: read-out: Gαo affinity. The procedure:
as §1, §6, §5

Assay [10] deals with T10, RGS4 no Cys in RGS domain (Rattus norvegicus, UniProt P49799, C132A/C148A/C71A/C95A).
T10 construct: made in house
The experiment in a line: FCPIA, RGS4 mutant with no Cys in RGS domain. To be noted: no Cys in RGS domain; read-out: Gαo affinity. On the procedure: as §4, §1, §5

Assay [11] concerns the target RGS4 no Cys in C-terminus. The experiment in a line: FCPIA, RGS4 mutant with no Cys in C-terminus. To be noted: read-out: Gαo affinity. On the procedure:
as §4, §1, §5

The target of assay [12] is T11, RGS4 (Rattus norvegicus, UniProt P49799).
T11 construct: made in house
T11 sequence (P49799 52-205 limits assumed): T1 sequence (P49799 52-205 C95A limits assumed) with A44C
The experiment in a line: FCPIA (flow cytometry protein interaction assay), RGS4-Gαo interaction, wild type RGS4 (MBP-RGS4Δ51N). To be noted: wild type RGS4Δ51N, calculated in the FCPIA; read-out: Gαo affinity.

Changes are numbered by the printed parent chain.

T6 sequence (P49799 52-205 C71A/C132A/C148A/C183A/C197A/C204A): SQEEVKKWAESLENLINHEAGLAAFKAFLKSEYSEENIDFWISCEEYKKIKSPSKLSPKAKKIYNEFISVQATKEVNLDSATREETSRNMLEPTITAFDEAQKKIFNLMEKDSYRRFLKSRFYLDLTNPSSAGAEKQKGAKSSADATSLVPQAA
T9 sequence (P49799 52-205 C71A/C95A/C148A/C183A/C197A/C204A): as the sequence (P49799 52-205 C71A/C132A/C148A/C183A/C197A/C204A) above, with C44A, A81C counted along it
T10 sequence (P49799 52-205 C71A/C95A/C132A/C148A limits assumed): as the sequence (P49799 52-205 C71A/C132A/C148A/C183A/C197A/C204A) above, with C44A, A132C, A146C, A153C counted along it
T8 sequence (P49799 52-205 C95A/C132A/C148A/C183A/C197A/C204A): as the sequence (P49799 52-205 C71A/C132A/C148A/C183A/C197A/C204A) above, with A20C, C44A counted along it
T2 sequence (P49799 52-205 C148A limits assumed): as the sequence (P49799 52-205 C71A/C132A/C148A/C183A/C197A/C204A) above, with A20C, A81C, A132C, A146C, A153C counted along it
T5 sequence (P49799 52-205 C71A/C95A/C132A/C148A/C183A/C197A/C204A): as the sequence (P49799 52-205 C71A/C132A/C148A/C183A/C197A/C204A) above, with C44A counted along it

B1: Gαo: Alexa Fluor 532-labeled Gα subunit, binding partner of RGS proteins in the FCPIA (protein)
chain: MGCTLSAEERAALERSKAIEKNLKEDGISAAKDVKLLLLGAGESGKSTIVKQMKIIHEDGFSGEDVKQYKPVVYSNTIQSLAAIVRAMDTLGVEYGDKERKADSKMVCDVVSRMEDTEPFSAELLSAMMRLWGDSGIQECFNRSREYQLNDSAKYYLDSLDRIGAADYQPTEQDILRTRVKTTGIVETHFTFKNLHFRLFDVGGQRSERKKWIHCFEDVTAIIFCVALSGYDQVLHEDETTNRMHESLMLFDSICNNKFFIDTSIILFLNKKDLFGEKIKKSPLTICFPEYPGSNTYEDAAAYIQTQFESKNRSPNKEIYCHMTCATDTNNIQVVFDAVTDIIIANNLRGCGLY
modifications: Alexa Fluor 532 label (sites not given)
For the molecule B1, the Kd in assay [1] was 8.17 ± 1.5 nM; in [2] it was 6.84 ± 1 nM; in assay [3], 12.2 ± 1.8 nM; in assay [4], 7.9 ± 3.1 nM; in [5], 8.3 ± 1 nM; in assay [6] it was 12 ± 2 nM. Also, the Kd in assay [7] was 5.7 ± 0.2 nM; in assay [8], 9.2 ± 2 nM; in assay [9], 12.5 ± 1 nM; in assay [10], 3.9 ± 0.8 nM; in [11] it was 5 ± 0.7 nM; in assay [12], 11.6 ± 1.4 nM.
